We go through one substance from paper PMC9941469.

For this assay, the target named is phosphorylated Smad5 (pSmad5), mouse (UniProt P97454). As to the kind of experiment: Co-Immunoprecipitation. The note with it: parent: est. 100; read off a plot.
Sequence of UniProt P97454 (P97454 whole entry): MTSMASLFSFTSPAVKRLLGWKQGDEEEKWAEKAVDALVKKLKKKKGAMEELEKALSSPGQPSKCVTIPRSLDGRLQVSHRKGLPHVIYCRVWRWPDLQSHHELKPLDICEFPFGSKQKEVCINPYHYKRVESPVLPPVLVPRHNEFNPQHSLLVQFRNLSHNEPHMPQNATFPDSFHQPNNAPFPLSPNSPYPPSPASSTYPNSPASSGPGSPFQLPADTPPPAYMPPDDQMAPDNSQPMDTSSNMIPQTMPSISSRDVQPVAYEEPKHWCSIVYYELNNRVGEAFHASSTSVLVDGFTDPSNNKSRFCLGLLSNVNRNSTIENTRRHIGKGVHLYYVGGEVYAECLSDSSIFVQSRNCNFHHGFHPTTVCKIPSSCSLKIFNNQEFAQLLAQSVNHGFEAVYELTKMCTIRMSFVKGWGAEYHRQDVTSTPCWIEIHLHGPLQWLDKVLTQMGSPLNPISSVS

In the case of “Hoxd13 (homeobox D13), wild type, mouse (from UniProt P70217) R306L”, the percent of parent was 70 % of WT.
